{
  "source": "patent US20260041744A1",
  "about": "“Methods for Treating Pompe Disease” (Amicus Therapeutics, Inc., priority 2022, published 2026)",
  "key": {"CIMPR": {"molecular_target": "CIMPR (Homo sapiens, UniProt P11717)", "sequence (P11717 41-2491, species assumed)": "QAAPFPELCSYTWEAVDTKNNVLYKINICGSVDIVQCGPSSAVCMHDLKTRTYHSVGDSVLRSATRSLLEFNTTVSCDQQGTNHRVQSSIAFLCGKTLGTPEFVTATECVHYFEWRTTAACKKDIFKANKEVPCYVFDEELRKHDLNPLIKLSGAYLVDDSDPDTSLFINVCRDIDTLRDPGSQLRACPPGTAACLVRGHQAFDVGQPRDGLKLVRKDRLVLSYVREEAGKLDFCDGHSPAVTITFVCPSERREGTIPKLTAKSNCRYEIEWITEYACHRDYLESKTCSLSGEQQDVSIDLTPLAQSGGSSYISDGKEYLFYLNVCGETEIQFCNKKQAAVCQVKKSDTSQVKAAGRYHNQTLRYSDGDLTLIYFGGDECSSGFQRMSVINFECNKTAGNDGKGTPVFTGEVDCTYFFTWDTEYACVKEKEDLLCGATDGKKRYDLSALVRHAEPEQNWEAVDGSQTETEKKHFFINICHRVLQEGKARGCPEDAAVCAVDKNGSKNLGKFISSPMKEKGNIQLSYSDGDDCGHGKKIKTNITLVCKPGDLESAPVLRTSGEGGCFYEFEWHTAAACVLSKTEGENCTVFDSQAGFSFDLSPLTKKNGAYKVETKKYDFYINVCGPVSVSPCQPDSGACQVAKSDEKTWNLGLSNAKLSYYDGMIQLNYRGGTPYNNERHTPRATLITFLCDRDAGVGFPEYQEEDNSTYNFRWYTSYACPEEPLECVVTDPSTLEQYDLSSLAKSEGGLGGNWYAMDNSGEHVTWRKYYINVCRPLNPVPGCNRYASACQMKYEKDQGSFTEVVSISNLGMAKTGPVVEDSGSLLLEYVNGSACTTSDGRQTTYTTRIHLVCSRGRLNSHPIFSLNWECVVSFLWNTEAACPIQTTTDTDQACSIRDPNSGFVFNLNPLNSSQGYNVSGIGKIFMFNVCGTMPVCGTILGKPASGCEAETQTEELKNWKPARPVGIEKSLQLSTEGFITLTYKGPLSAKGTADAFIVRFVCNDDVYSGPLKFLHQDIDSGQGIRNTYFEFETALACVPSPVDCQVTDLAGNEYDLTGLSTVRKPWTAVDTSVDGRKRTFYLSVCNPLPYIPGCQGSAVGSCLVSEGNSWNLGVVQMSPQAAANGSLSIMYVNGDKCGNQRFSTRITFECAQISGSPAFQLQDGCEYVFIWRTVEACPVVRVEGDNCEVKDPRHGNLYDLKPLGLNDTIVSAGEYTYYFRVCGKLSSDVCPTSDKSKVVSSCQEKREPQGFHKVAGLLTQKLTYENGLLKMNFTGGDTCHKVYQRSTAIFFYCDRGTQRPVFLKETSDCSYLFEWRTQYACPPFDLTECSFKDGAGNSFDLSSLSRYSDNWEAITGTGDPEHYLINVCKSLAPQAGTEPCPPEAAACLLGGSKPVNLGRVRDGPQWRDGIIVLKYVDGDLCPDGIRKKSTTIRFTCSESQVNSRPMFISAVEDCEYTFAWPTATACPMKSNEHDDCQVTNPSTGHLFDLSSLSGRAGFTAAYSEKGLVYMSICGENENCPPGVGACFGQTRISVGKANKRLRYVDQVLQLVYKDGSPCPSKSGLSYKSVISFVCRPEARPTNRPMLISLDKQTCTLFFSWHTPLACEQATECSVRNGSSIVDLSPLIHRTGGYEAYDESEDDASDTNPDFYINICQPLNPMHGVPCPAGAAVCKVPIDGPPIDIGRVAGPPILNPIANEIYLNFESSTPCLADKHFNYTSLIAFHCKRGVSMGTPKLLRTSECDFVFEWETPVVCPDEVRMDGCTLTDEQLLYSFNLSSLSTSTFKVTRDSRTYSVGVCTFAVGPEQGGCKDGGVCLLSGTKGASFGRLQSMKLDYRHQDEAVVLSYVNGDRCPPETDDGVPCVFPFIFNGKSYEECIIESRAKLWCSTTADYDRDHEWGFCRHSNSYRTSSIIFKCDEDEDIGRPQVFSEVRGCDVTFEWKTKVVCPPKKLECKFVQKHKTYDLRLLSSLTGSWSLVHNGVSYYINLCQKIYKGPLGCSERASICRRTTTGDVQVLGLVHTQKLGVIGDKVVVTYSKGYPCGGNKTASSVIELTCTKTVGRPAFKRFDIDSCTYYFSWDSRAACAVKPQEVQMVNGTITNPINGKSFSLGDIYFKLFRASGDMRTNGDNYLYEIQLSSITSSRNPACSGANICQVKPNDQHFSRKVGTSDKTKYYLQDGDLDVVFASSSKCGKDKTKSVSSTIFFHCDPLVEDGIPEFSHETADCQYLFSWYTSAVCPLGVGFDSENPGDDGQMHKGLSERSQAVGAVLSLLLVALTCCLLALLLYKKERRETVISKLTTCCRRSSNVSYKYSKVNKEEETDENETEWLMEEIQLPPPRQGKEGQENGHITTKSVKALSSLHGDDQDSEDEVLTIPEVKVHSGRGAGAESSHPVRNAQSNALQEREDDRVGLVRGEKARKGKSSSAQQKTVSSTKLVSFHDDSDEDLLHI", "experiment": "CIMPR Overlay Assay (far-western blot)", "assay_type": "binding", "experimental": "The CIMPR Overlay Assay is a variation on a far-western blot where proteins are separated on an SDS-PAGE, transferred to a nitrocellulose membrane, and incubated with purified CIMPR in the place of a primary antibody as in a conventional western blot. Binding of CIMPR to M6P-containing glycans on rhGAA proteins is then visualized by an anti-CIMPR antibody."}, "[1]": {"tested_on": "subjects with late-onset Pompe disease (LOPD)", "conditions": "systematic review, 368 LOPD subjects (Toscano and Schoser); cited from earlier work"}},
  "data": [
    {"substance": "alglucosidase alfa [reference compound]", "values": [
      {"measurement": "CIMPR binding in overlay assay", "setting": "CIMPR", "result": "a band with a much lower intensity"},
      {"measurement": "subjects without initial improvement during treatment", "setting": "[1]", "result": "> 30", "unit": "%"}
    ]}
  ]
}
